Data: article PMC10862009, “Generation of antibodies to an extracellular region of the transporters Glut1/Glut4 by immunization with a designed antigen” (The Journal of Biological Chemistry, 2024)

Assays:
Anti-Glut4 VHH = molecular target: T1, Anti-Glut4 VHH (alpaca); test: ITC; 10 uM VHH in the cell; 100 uM fusion protein (or scaffold protein Adhiron-WT) titrated, 20 injections of 2 ul at intervals of 120 s; PBS pH 7.4, 25 °C; n = 3, mean ± s.e.m.; conditions: both partners purified
T1 construct: alpaca VHH; selected by phage display from an alpaca immunized with Adhiron-Glut4; also called the VHH; anti-Glut4 VHH antibody; source: E. coli BL21(DE3), purified (Ni-NTA, SEC)

[1] = molecular target: T2, full-length Glut1 as a recombinant protein (Homo sapiens, UniProt P11166); test: SPR; Biacore 8K; His-tagged Glut1 captured by anti-His antibodies on a CM5 chip; VHH injected at 123 nM-10 μM, single-cycle kinetics; 25 mM Mes-NaOH pH 6.0, 150 mM NaCl, 5% glycerol, 0.05% n-dodecyl-β-D-maltoside, 25 °C; conditions: both partners purified
T2 construct: glucose transporter 1 (Glut1), human, full length; also called glucose transporter 1; full-length Glut1 in micelles; source: High Five insect cells (baculovirus), purified (solubilised with n-dodecyl-β-D-maltopyranoside, Ni-NTA, SEC); not shown: His10, C-terminal, kept

Fc-VHH antibody of VHH4 [2] = molecular target: T3, Fc-VHH antibody of VHH4 (alpaca); test: flow cytometry on cells; Expi293 cells transfected with Glut1 against empty vector; 1 μM Fc-VHH with Alexa Fluor 488 anti-human IgG, on ice 60 min; conditions: one partner purified
T3 construct: as the VHH of m6; form used for flow cytometry; source: ExpiCHO, transfected, purified from the supernatant (rProtein A Sepharose, SEC); not shown: Fc (Fc region of trastuzumab), C-terminal, kept

Fc-VHH antibody of VHH5 [3] = molecular target: T4, Fc-VHH antibody of VHH5 (alpaca); test: as above; conditions: one partner purified
T4 construct: as the VHH of m7; form used for flow cytometry; source: ExpiCHO, transfected, purified from the supernatant (rProtein A Sepharose, SEC); not shown: Fc (Fc region of trastuzumab), C-terminal, kept

Fc-VHH antibody of VHH4 [4] = molecular target: T3, Fc-VHH antibody of VHH4; test: flow cytometry on cells; HCT116 cells with endogenous Glut1; 1 μM Fc-VHH with Alexa Fluor 488 anti-human IgG, on ice 60 min; conditions: one partner purified
Fc-VHH antibody of VHH5 [5] = molecular target: T4, Fc-VHH antibody of VHH5; test: as above; conditions: one partner purified

T1 sequence (VHH, as listed by the source): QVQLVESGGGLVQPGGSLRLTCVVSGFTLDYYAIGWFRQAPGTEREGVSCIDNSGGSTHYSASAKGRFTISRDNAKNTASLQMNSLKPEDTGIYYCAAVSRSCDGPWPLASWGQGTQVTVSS

B1: Adhiron-Glut4 (other)
chain: ENSLEIEELARFAVDEHNKKENALLEFVRVVKAKEQGGGGSAPQKVIEQSYNETWLGRQGPEGPSSIPPGTLTTLWALSVGGGGSTMYYLTLEAKDGGKKKLYEAKVWVKPWENFKELQEFKPV
modifications: Limits of the Glut4 graft are not printed: 47-85 is the homologue of Glut1 35-69 (two extracellular helices). Graft site is assumed to be as in Adhiron-Glut1: loop 47VVAG50 (entity 37-40, offset 10) …
Kd (Anti-Glut4 VHH): 3.67 nM
stoichiometry N (Anti-Glut4 VHH): 1.02

B2: VHH5 with a FLAG tag (VHH)
VHH: ELQLVESGGGLVQPGGSLRLSCAVSGVAFEDYAIGWFRQAPGKEREGVSCISSGSGSRIYTDSVKGRFTVSRDNPKNTVDLQMDSLKPEDTAVYYCAAERDYYCSGYPTYRAFSSWGEGTQVTVSS
notes: as the VHH of m7; Form prepared for SPR; source: E. coli BL21(DE3), purified (DDDDK-tagged Protein Purification Gel, SEC)
binding result [1]: binds

B3: VHH4 with a FLAG tag (VHH)
VHH: EVQLVESGGGLVQPGGSLRLSCAASGFTLDRYAIGWFRQAPGKEREGISCISSGSGSRVYADSVKGRFTVSRDNVENTVSLEMNSLKPEDTAVYYCAAEADYYCSGYPIYRKFGSWGQGTQVTVSS
notes: as the VHH of m6; Form prepared for SPR; source: E. coli BL21(DE3), purified (DDDDK-tagged Protein Purification Gel, SEC)
binding result [1]: binds

B4: Glut1 overexpressed on Expi293 cells (natural protein, human, UniProt P11166 1-492, looked up)
chain: MEPSSKKLTGRLMLAVGGAVLGSLQFGYNTGVINAPQKVIEEFYNQTWVHRYGESILPTTLTTLWSLSVAIFSVGGMIGSFSVGLFVNRFGRRNSMLMMNLLAFVSAVLMGFSKLGKSFEMLILGRFIIGVYCGLTTGFVPMYVGEVSPTALRGALGTLHQLGIVVGILIAQVFGLDSIMGNKDLWPLLLSIIFIPALLQCIVLPFCPESPRFLLINRNEENRAKSVLKKLRGTADVTHDLQEMKEESRQMMREKKVTILELFRSPAYRQPILIAVVLQLSQQLSGINAVFYYSTSIFEKAGVQQPVYATIGSGIVNTAFTVVSLFVVERAGRRTLHLIGLAGMAGCAILMTIALALLEQLPWMSYLSIVAIFGFVAFFEVGPGPIPWFIVAELFSQGPRPAAIAVAGFSNWTSNFIVGMCFQYVEQLCGPYVFIIFTVLLVLFFIFTYFKVPETKGRTFDEIASGFRQGGASQSDKTPEELFHPLGADSQV
notes: glucose transporter 1 (Glut1), human, on the surface of transfected Expi293 cells; also called Glut1 on the cell membrane; overexpressed Glut1; source: Expi293, transfected (pcDNA 3.4), on cells
binding result (Fc-VHH antibody of VHH4 [2]): binds
binding result (Fc-VHH antibody of VHH5 [3]): binds

B5: endogenous Glut1 on HCT116 cells (natural protein, human (endogenous in HCT116), UniProt P11166 1-492, looked up)
chain: MEPSSKKLTGRLMLAVGGAVLGSLQFGYNTGVINAPQKVIEEFYNQTWVHRYGESILPTTLTTLWSLSVAIFSVGGMIGSFSVGLFVNRFGRRNSMLMMNLLAFVSAVLMGFSKLGKSFEMLILGRFIIGVYCGLTTGFVPMYVGEVSPTALRGALGTLHQLGIVVGILIAQVFGLDSIMGNKDLWPLLLSIIFIPALLQCIVLPFCPESPRFLLINRNEENRAKSVLKKLRGTADVTHDLQEMKEESRQMMREKKVTILELFRSPAYRQPILIAVVLQLSQQLSGINAVFYYSTSIFEKAGVQQPVYATIGSGIVNTAFTVVSLFVVERAGRRTLHLIGLAGMAGCAILMTIALALLEQLPWMSYLSIVAIFGFVAFFEVGPGPIPWFIVAELFSQGPRPAAIAVAGFSNWTSNFIVGMCFQYVEQLCGPYVFIIFTVLLVLFFIFTYFKVPETKGRTFDEIASGFRQGGASQSDKTPEELFHPLGADSQV
notes: glucose transporter 1 (Glut1), endogenous on the surface of HCT116 colon cancer cells; source: endogenous, on HCT116 cells
binding result (Fc-VHH antibody of VHH4 [4]): binds
binding result (Fc-VHH antibody of VHH5 [5]): binds
